# Assay results as given in patent publication US20230321241A1, “CANCER PEPTIDE VACCINE AND METHOD OF PREPARING THE SAME” (BrightPath Biotherapeutics Co., Ltd., priority 2020, published 2023).
# Where a SMILES comes first, the peptide text is derived from it. Where no end group is shown, it is not given here.
# Assays:
# Assay type in all cases: physicochemical
# [1] = Test Example 1: examination of peptide solubility in citrate/phosphate buffers; details: for result (whether peptide drug substance was dissolved): room temperature 24 hours
# Protocol: The solubility of a peptide drug substance (purity 95 w/w % or more, PPL) was examined for the peptides Asn-Val-Leu-His-Phe-Phe-Asn-Ala-Pro-Leu (SEQ ID NO: 1), Ala-Ser-Leu-Asp-Ser-Asp-Pro-Trp-Val (SEQ ID NO: 2), Lys-Leu-Lys-His-Tyr-Gly-Pro-Gly-Trp-Val (SEQ ID NO: 3), and Leu-Leu-Gln-Ala-Glu-Ala-Pro-Arg-Leu (SEQ ID NO: 4), respectively. First, 10 mM citrate buffers (Citrate) or phosphate buffers (Phosphate) containing 270 mM trehalose from pH 3.0 to pH 8.0 were prepared and the peptide drug substance was added to each buffer so as to provide a predetermined peptide concentration. The mixture was stirred and allowed to stand at room temperature for 24 hours to evaluate whether the peptide drug substance was dissolved.
# [2] = Test Example 2: solubility of SEQ ID NO: 1 in glycine-HCl buffers; details: for result (solubility): 270 mM trehalose, 24 hours
# Protocol: The solubility of the peptide drug substance of SEQ ID NO: 1 (purity 95 w/w % or more, PPL) was examined as described below. First, 10 to 500 mM glycine-HCl buffers containing 270 mM trehalose from pH 2.5 to 3.5 were prepared, and the peptide drug substance was added to 2 mL of each buffer so that the peptide concentration was 10 to 25 mg/mL.
# [3] = Example 1: peptide cocktail preparation standing at room temperature for 6 hours; details: for HPLC analysis: peptide concentration: in peptide cocktail preparation of Example 1 (with GM-CSF); for HPLC analysis: % vs T0: in peptide cocktail preparation of Example 1, T = 6 hours
# Protocol: Using the lyophilized peptide preparations produced in Preparation Example 1, a peptide cocktail preparation to be administered was prepared as follows. First, 1 mL of purified water was added to each lyophilized peptide preparation, and the lyophilized product in the vial was dissolved to prepare a peptide solution. All the peptide solutions were collected from the respective vials and transferred to a different vial to provide a peptide cocktail preparation. Also, a GM-CSF lyophilized preparation (product name: Lukine ([…]), Sanofi) was dissolved in 1 mL of purified water and 0.6 mL of the solution thus obtained was added as an adjuvant to 1.4 mL of the peptide cocktail preparation to provide a peptide cocktail preparation to be administered. Then, the peptide cocktail preparation thus obtained was allowed to stand at room temperature for 6 hours, and evaluated for changes in peptide concentration, pH (25° C.), and osmotic pressure compared with those before standing.
# [4] = Test Example 3: peptide stability in solution (HPLC); details: for % difference vs T = 0 / Conc.: buffers as Table 3; for T0 Conc.: time of preparation, buffers: SEQ1 pH 3.5 50 mM Gly-HCl + 200 mM trehalose, SEQ2 pH 4.0, SEQ3 pH 7.0, SEQ4 pH 6.0 in 10 mM citrate + 270 mM trehalose
# Protocol: Based on the results of Test Example 1 and Test Example 2, the stability of the peptides was examined. First, peptide drug substances (purity 95 w/w % or more, PPL) were dissolved in the buffers shown in Table 3, respectively, to prepare peptide solutions of the peptides of SEQ ID NOs: 1 to 4 at the final concentration of 10 mg/mL. […] In the evaluation, samples were collected at the time of preparation of the peptide solution, after 24 hours, and after 48 hours, and stored at −20° C. The peptide concentration was measured by HPLC after all the samples were collected, and compared with the peptide concentration at the time of preparation (T=0).
# [5] = Preparation Example 2: stability of lyophilized peptide cocktail preparation; details: T = 1 (1 month at 25° C., humidity 60%)
# Protocol: To produce a lyophilized peptide cocktail preparation and confirm the stability of the preparation, 500 mL of a peptide cocktail preparation was prepared in the same manner as in Example 1, and then the preparation was aseptically filled to a glass vial at 1 mL per vial and lyophilized to provide a lyophilized peptide cocktail preparation. Then, immediately after the preparation (T=0) or after storage at room temperature (25° C., humidity 60%) for 1 month from the preparation (T=1), 1 mL of purified water was added to the lyophilized preparation to dissolve the peptides. Appearance, solubility, peptide stability, and pH were evaluated.
molecule,measurement,setting,value
"CC(C)C[C@H](NC(=O)[C@@H]1CCCN1C(=O)[C@H](C)NC(=O)[C@H](CC(N)=O)NC(=O)[C@H](Cc1ccccc1)NC(=O)[C@H](Cc1ccccc1)NC(=O)[C@H](Cc1c[nH]cn1)NC(=O)[C@H](CC(C)C)NC(=O)[C@@H](NC(=O)[C@@H](N)CC(N)=O)C(C)C)C(=O)O [SEQ ID NO: 1, Asn-Val-Leu-His-Phe-Phe-Asn-Ala-Pro-Leu] (H-NVLHFFNAPL-OH; N-terminus and C-terminus assumed)",solubility (summary of Table 1),"[1]; any of the conditions (pH 3.0 to 8.0), final concentration of 20 mg/mL",could not be dissolved
same,result (solubility),"[2]; glycine-HCl buffer pH 2.5, glycine 10 mM (0.75 mg/mL), final conc. of peptide 20 mg/mL, mass ratio peptide/glycine 26.67",dissolved
same,result (solubility),"[2]; glycine-HCl buffer pH 3, glycine 10 mM (0.75 mg/mL), final conc. of peptide 20 mg/mL, mass ratio 26.67",dissolved
same,result (solubility),"[2]; glycine-HCl buffer pH 3.5, glycine 10 mM (0.75 mg/mL), final conc. of peptide 20 mg/mL, mass ratio 26.67",dissolved
same,result (solubility),"[2]; glycine-HCl buffer pH 3.5, glycine 50 mM (3.75 mg/mL), final conc. of peptide 10 mg/mL, mass ratio 2.67",dissolved
same,result (solubility),"[2]; glycine-HCl buffer pH 3.5, glycine 50 mM (3.75 mg/mL), final conc. of peptide 25 mg/mL, mass ratio 6.67",white turbid
same,result (solubility),"[2]; glycine-HCl buffer pH 3.5, glycine 100 mM (7.5 mg/mL), final conc. of peptide 10 mg/mL, mass ratio 1.33",dissolved
same,result (solubility),"[2]; glycine-HCl buffer pH 3.5, glycine 100 mM (7.5 mg/mL), final conc. of peptide 25 mg/mL, mass ratio 3.33",white turbid
same,result (solubility),"[2]; glycine-HCl buffer pH 3.5, glycine 200 mM (15 mg/mL), final conc. of peptide 10 mg/mL, mass ratio 0.67",dissolved
same,result (solubility),"[2]; glycine-HCl buffer pH 3.5, glycine 300 mM (22.5 mg/mL), final conc. of peptide 10 mg/mL, mass ratio 0.44",dissolved
same,result (solubility),"[2]; glycine-HCl buffer pH 3.5, glycine 500 mM (37.5 mg/mL), final conc. of peptide 25 mg/mL, mass ratio 0.67",white turbid
same,solubility (summary of Table 2),"[2]; peptide concentration of 25 mg/mL, even when glycine concentration was 500 mM",could not be dissolved
same,stability / precipitation in the cocktail preparation,[3]; pH 4.9,stable without precipitation
LLQAEAPRL [SEQ ID NO: 4],result (whether peptide drug substance was dissolved),"[1]; 10 mM Citrate pH 3.0, 270 mM trehalose, final conc. 20 mg/mL",dissolved
same,result (whether peptide drug substance was dissolved),"[1]; 10 mM Citrate pH 3.5, 270 mM trehalose, final conc. 20 mg/mL",dissolved
same,result (whether peptide drug substance was dissolved),"[1]; 10 mM Citrate pH 4.0, 270 mM trehalose, final conc. 28.6 mg/mL",dissolved
same,result (whether peptide drug substance was dissolved),"[1]; 10 mM Citrate pH 5.0, 270 mM trehalose, final conc. 20 mg/mL",dissolved
same,result (whether peptide drug substance was dissolved),"[1]; 10 mM Citrate pH 6.0, 270 mM trehalose, final conc. 28.6 mg/mL",dissolved
same,result (whether peptide drug substance was dissolved),"[1]; 10 mM Phosphate pH 7.0, 270 mM trehalose, final conc. 25 mg/mL",dissolved
same,result (whether peptide drug substance was dissolved),"[1]; 10 mM Phosphate pH 7.5, 270 mM trehalose, final conc. 25 mg/mL",dissolved
same,result (whether peptide drug substance was dissolved),"[1]; 10 mM Phosphate pH 8.0, 270 mM trehalose, final conc. 25 mg/mL",dissolved
same,% difference vs T = 0,"[4]; T = 24 h, 25° C./60% RH",−1%
same,Conc.,"[4]; T = 24 h, 25° C./60% RH",10470 µg/mL
same,% difference vs T = 0,"[4]; T = 24 h, 40° C./75% RH",1%
same,Conc.,"[4]; T = 24 h, 40° C./75% RH",10680 µg/mL
same,% difference vs T = 0,"[4]; T = 48 h, 25° C./60% RH",−4%
same,Conc.,"[4]; T = 48 h, 25° C./60% RH",10160 µg/mL
same,% difference vs T = 0,"[4]; T = 48 h, 40° C./75% RH",−1%
same,Conc.,"[4]; T = 48 h, 40° C./75% RH",10470 µg/mL
same,T0 Conc.,[4],10.61 mg/mL
same,HPLC analysis: peptide concentration,[3]; T = 0 hour,SEQ ID NO: 4: 2.8 mg/mL
same,HPLC analysis: peptide concentration,"[3]; T = 6 hours, room temperature",3.0 mg/mL
same,HPLC analysis: % vs T0,[3]; room temperature,106.4%
same,change in peptide amount % vs T = 0 (100%) (HPLC analysis),[5],SEQ ID NO: 4: 101.2%
KLKHYGPGWV [SEQ ID NO: 3],result (whether peptide drug substance was dissolved),"[1]; 10 mM Citrate pH 3.0, 270 mM trehalose, final conc. 200 mg/mL",dissolved
same,result (whether peptide drug substance was dissolved),"[1]; 10 mM Citrate pH 3.5, 270 mM trehalose, final conc. 200 mg/mL",dissolved
same,result (whether peptide drug substance was dissolved),"[1]; 10 mM Citrate pH 4.0, 270 mM trehalose, final conc. 200 mg/mL",dissolved
same,result (whether peptide drug substance was dissolved),"[1]; 10 mM Citrate pH 5.0, 270 mM trehalose, final conc. 200 mg/mL",dissolved
same,result (whether peptide drug substance was dissolved),"[1]; 10 mM Citrate pH 6.0, 270 mM trehalose, final conc. 200 mg/mL",dissolved
same,result (whether peptide drug substance was dissolved),"[1]; 10 mM Phosphate pH 7.0, 270 mM trehalose, final conc. 200 mg/mL",dissolved
same,result (whether peptide drug substance was dissolved),"[1]; 10 mM Phosphate pH 7.5, 270 mM trehalose, final conc. 200 mg/mL",dissolved
same,result (whether peptide drug substance was dissolved),"[1]; 10 mM Phosphate pH 8.0, 270 mM trehalose, final conc. 200 mg/mL",dissolved
same,% difference vs T = 0,"[4]; T = 24 h, 25° C./60% RH",2%
same,Conc.,"[4]; T = 24 h, 25° C./60% RH",11420 µg/mL
same,% difference vs T = 0,"[4]; T = 24 h, 40° C./75% RH",4%
same,Conc.,"[4]; T = 24 h, 40° C./75% RH",11700 µg/mL
same,% difference vs T = 0,"[4]; T = 48 h, 25° C./60% RH",4%
same,Conc.,"[4]; T = 48 h, 25° C./60% RH",11630 µg/mL
same,% difference vs T = 0,"[4]; T = 48 h, 40° C./75% RH",4%
same,Conc.,"[4]; T = 48 h, 40° C./75% RH",11740 µg/mL
same,T0 Conc.,[4],11.23 mg/mL
same,HPLC analysis: peptide concentration,[3]; T = 0 hour,SEQ ID NO: 3: 2.5 mg/mL
same,HPLC analysis: peptide concentration,"[3]; T = 6 hours, room temperature",2.7 mg/mL
same,HPLC analysis: % vs T0,[3]; room temperature,107.7%
same,change in peptide amount % vs T = 0 (100%) (HPLC analysis),[5],SEQ ID NO: 3: 104.5%
